Positions count from the first letter of the chain named. Names and notes keep the numbering of the source.
T1: orthogonal hCD122 receptor (hoRb), hCD122 with H133D and Y134F (human, UniProt P14784 27-550)
T1 sequence: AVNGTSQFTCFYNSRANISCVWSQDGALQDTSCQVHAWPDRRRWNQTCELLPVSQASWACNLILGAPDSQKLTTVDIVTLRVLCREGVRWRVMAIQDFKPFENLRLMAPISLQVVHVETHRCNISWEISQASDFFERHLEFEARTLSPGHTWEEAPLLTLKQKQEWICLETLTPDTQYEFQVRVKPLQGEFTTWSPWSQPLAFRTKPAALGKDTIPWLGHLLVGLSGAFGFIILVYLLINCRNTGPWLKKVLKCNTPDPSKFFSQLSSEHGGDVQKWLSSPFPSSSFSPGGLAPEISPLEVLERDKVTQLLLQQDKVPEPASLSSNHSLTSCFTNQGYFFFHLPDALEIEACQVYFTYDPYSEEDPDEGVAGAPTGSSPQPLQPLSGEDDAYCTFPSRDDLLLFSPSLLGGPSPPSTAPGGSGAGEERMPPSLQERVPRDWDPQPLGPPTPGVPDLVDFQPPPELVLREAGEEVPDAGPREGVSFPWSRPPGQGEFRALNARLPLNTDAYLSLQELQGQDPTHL

B1: ΔL19, SQ_LKA (ligand)
chain: APTSSSTKKTQLQLSQLLLLKAILNGINNYKNPKLTRMLTFKFYMPKKATELKHLQCLEEELKPLEEVLNLAQSKNFHLRPRDLISNINVIVLELKGSETTFMCEYADETATIVEFLNRWITFCQSIISTLT
B2: ΔD20, SQV_KA (ligand)
chain: B1 chain with L19V
B3: T3C, SQVLKA (ligand)
chain: APCSSSTKKTQLQLSQLLVLLKAILNGINNYKNPKLTRMLTFKFYMPKKATELKHLQCLEEELKPLEEVLNLAQSKNFHLRPRDLISNINVIVLELKGSETTFMCEYADETATIVEFLNRWITFCQSIISTLT
B4: L18T, SQVLKA (ligand)
chain: B3 chain with C3T, L18T
B5: L18V, SQVLKA (ligand)
chain: B3 chain with C3T, L18V
B6: L18K, SQVLKA (ligand)
chain: B3 chain with C3T, L18K
B7: L18Q, SQVLKA (ligand)
chain: B3 chain with C3T, L18Q
B8: L18S, SQVLKA (ligand)
chain: B3 chain with C3T, L18S
B9: L18Y, SQVLKA (ligand)
chain: B3 chain with C3T, L18Y
B10: L18D, SQVLKA (ligand)
chain: B3 chain with C3T, L18D
B11: L18I, SQVLKA (ligand)
chain: B3 chain with C3T, L18I
B12: SQILKA (ligand)
chain: B3 chain with C3T, V19I
B13: L18W, SQVLKA (ligand)
chain: B3 chain with C3T, L18W
B14: T3A, SQVLKA (ligand)
chain: B3 chain with C3A

Molecular target: T1, orthogonal hCD122 receptor (hoRb), …
Test: cell-based or functional assay

3F8 Ortho Proliferation Signal 1:2	3F8 Ortho Proliferation Signal 1:10	3F8 Ortho Proliferation Signal 1:50	Relative Proliferation Fold Change 3F8 1:2	Relative Proliferation Fold Change 3F8 1:10	Relative Proliferation Fold Change 3F8 1:50	Binder
736 cts/min	1070 cts/min	1540 cts/min	1.11 fold	1.27 fold	1.98 fold	B1
1010 cts/min	1270 cts/min	1370 cts/min	1.51 fold	1.35 fold	1.66 fold	B2
33100 cts/min	33700 cts/min	14600 cts/min	34.9 fold	12.8 fold	12 fold	B3
61100 cts/min	51800 cts/min	25700 cts/min	2.05 fold	6.27 fold	13.8 fold	B4
36500 cts/min	29500 cts/min	9920 cts/min	139 fold	19.2 fold	12 fold	B5
45400 cts/min	42800 cts/min	20400 cts/min	162 fold	49.6 fold	14.6 fold	B6
40800 cts/min	57200 cts/min	44700 cts/min	111 fold	80.8 fold	47.2 fold	B7
43300 cts/min	48600 cts/min	23600 cts/min	185 fold	89 fold	41.9 fold	B8
47600 cts/min	51400 cts/min	28200 cts/min	214 fold	101 fold	64 fold	B9
44000 cts/min	49600 cts/min	25200 cts/min	92.5 fold	81.3 fold	28.4 fold	B10
36900 cts/min	37300 cts/min	19400 cts/min	81.2 fold	29.8 fold	11 fold	B11
38500 cts/min	45700 cts/min	20300 cts/min	45.8 fold	34.2 fold	34.4 fold	B12
36800 cts/min	32800 cts/min	9570 cts/min	138 fold	43.1 fold	12.7 fold	B13
41400 cts/min	39300 cts/min	19500 cts/min	17.1 fold	11 fold	8.68 fold	B14

Molecular target: T1, orthogonal hCD122 receptor (hoRb), …
Test: cell-based or functional assay
Remark: another data set of the same source

NKL Ortho Proliferation Signal 1:2	NKL Ortho Proliferation Signal 1:10	NKL Ortho Proliferation Signal 1:50	Relative Proliferation Fold Change NKL 1:2	Relative Proliferation Fold Change NKL 1:10	Relative Proliferation Fold Change NKL 1:50	Binder
6440	9120	8470	0.49 fold	0.62 fold	0.59 fold	B1
6790	9390	8690	0.52 fold	0.59 fold	0.56 fold	B2
60600	70800	35300	4.54 fold	4.16 fold	2.06 fold	B3
25000	20100	11300	2.37 fold	1.49 fold	0.87 fold	B4
17800	14000	8670	1.36 fold	0.96 fold	0.62 fold	B5
22200	20200	11500	1.56 fold	1.21 fold	0.76 fold	B6
47500	41200	21400	3.93 fold	2.5 fold	1.41 fold	B7
27200	21500	11500	2.4 fold	1.56 fold	0.85 fold	B8
37300	27000	14800	3.34 fold	2.09 fold	1.19 fold	B9
6380	8160	7460	0.6 fold	0.59 fold	0.56 fold	B10
23800	20500	11000	2.05 fold	1.38 fold	0.8 fold	B11
55300	52500	24500	4.01 fold	3.44 fold	1.67 fold	B12
18700	17000	10700	1.56 fold	1.1 fold	0.71 fold	B13
69100	79500	47000	3.91 fold	4.22 fold	2.67 fold	B14

Reference: patent US20210196796A1 (SYNTHEKINE, published 2021)
